Results on 64 variants are retold here after the Human Domainome abundance scans (Beltran et al. 2025).

B1: TGF-beta-activated kinase 1 and MAP3K7-binding protein 3, residues 12 to 50; numbered along this chain, Q8N5C8 (parent)
chain: VLHDLRQRFPEIPEGVVSQCMLQNNNNLEACCRALSQES

± gives the uncertainty stated by the source.

This data set covers variants of B1. Kind of data set: abundance fitness (aPCA) (normalised: wild type 0, dead -1); higher = more abundant; growth selection in yeast, the domain comes from the species named. The settings on record: Homo sapiens.
On to VLHDLRQRFPEIPEGVVSQCMLQNNNNLEACCRSLSQES [A34S], for which the abundance fitness was -0.342 ± 0.055.

With VLHDLRQRFPEIPEGVVSQCMLQNNNNLEACCRILSQES [A34I], the abundance fitness was -0.04 ± 0.13.

On to VLHDLRQRFPEIPEGVVSQCMLQNNNNLEACCRLLSQES [A34L], for which the abundance fitness is -0.413 ± 0.05.

Consider VLHDLRQRFPEIPEGVVSQCMLQNNNNLEACCRKLSQES [A34K], for which the abundance fitness was -0.353 ± 0.054.

Turning to VLHDLRQRFPEIPEGVVSQCMLQNNNNLEACCRWLSQES [A34W], the abundance fitness is -0.398 ± 0.047.

As for VLHDLRQRFPEIPEGVVSQCMLQNNNNLEACCRELSQES [A34E], the abundance fitness is -0.056 ± 0.041.

With VLHDLRQRFPEIPEGVVSQCMLQNNNNLEACCRDLSQES [A34D], the abundance fitness was -0.178 ± 0.11.

VLHDLRQRFPEIPEGVVSQCMLQNNNNLEACCRTLSQES [A34T]: the abundance fitness was -0.297 ± 0.08.

Take VLHDLRQRFPEIPEGVVSQCMLQNNNNLEACCRQLSQES [A34Q]: the abundance fitness was 0.028 ± 0.063.

As to VLHDLRQRFPEIPEGVVSQCMLQNNNNLEACCRVLSQES [A34V], the abundance fitness is -0.135 ± 0.046.

Turning to VLHDLRQRFPEIPEGVVSQCMLQNNNNLEACCRYLSQES [A34Y], the abundance fitness is -0.328 ± 0.35.

For the variant VLHDLRQRFPEIPEGVVSQCMLQNNNNLEACCRRLSQES [A34R], the abundance fitness is -0.49 ± 0.046.

Turning to VLHDLRQRFPEIPEGVVSQCMLQNNNNLEACCRHLSQES [A34H], the abundance fitness is -0.117 ± 0.09.

On to VLHDLRQRFPEIPEGVVSQCMLQNNNNLEACCRMLSQES [A34M], for which the abundance fitness is -0.168 ± 0.051.

VLHDLRQRFPEIPEGVVSQCMLQNNNNLEACCRGLSQES [A34G]: the abundance fitness was -0.73 ± 0.057.

For VLHDLRQRFPEIPEGVVSQCMLQNNNNLEACCRCLSQES [A34C], the abundance fitness was -0.373 ± 0.13.

In the case of VLHDLRQRFPEIPEGVVSQCMLQNNNNLEACCRNLSQES [A34N], the abundance fitness was -0.819 ± 0.41.

Consider VLHDLRQRFPEIPEGVVSQCMLQNNNNLEACCRALEQES [S36E], for which the abundance fitness came to 0.166 ± 0.046.

Take VLHDLRQRFPEIPEGVVSQCMLQNNNNLEACCRALGQES [S36G]: the abundance fitness is -0.194 ± 0.042.

Take VLHDLRQRFPEIPEGVVSQCMLQNNNNLEACCRALIQES [S36I]: the abundance fitness was -0.108 ± 0.11.

Consider VLHDLRQRFPEIPEGVVSQCMLQNNNNLEACCRALCQES [S36C], for which the abundance fitness is -0.315 ± 0.099.

With VLHDLRQRFPEIPEGVVSQCMLQNNNNLEACCRALHQES [S36H], the abundance fitness was -0.314 ± 0.078.

VLHDLRQRFPEIPEGVVSQCMLQNNNNLEACCRALKQES [S36K]: the abundance fitness was -0.014 ± 0.062.

Regarding VLHDLRQRFPEIPEGVVSQCMLQNNNNLEACCRALDQES [S36D], the abundance fitness was -0.018 ± 0.087.

Regarding VLHDLRQRFPEIPEGVVSQCMLQNNNNLEACCRALAQES [S36A], the abundance fitness came out at 0.08 ± 0.042.

Consider VLHDLRQRFPEIPEGVVSQCMLQNNNNREACCRALSQES [L28R], for which the abundance fitness was -0.437 ± 0.047.

In the case of VLHDLRQRFPEIPEGVVSQCMLQNNNNAEACCRALSQES [L28A], the abundance fitness was -0.484 ± 0.05.

On to VLHDLRQRFPEIPEGVVSQCMLQNNNNCEACCRALSQES [L28C], for which the abundance fitness was -0.587 ± 0.37.

As for VLHDLRQRFPEIPEGVVSQCMLQNNNNGEACCRALSQES [L28G], the abundance fitness was -0.605 ± 0.048.

VLHDLRQRFPEIPEGVVSQCMLQNNNNQEACCRALSQES [L28Q]: the abundance fitness was -0.527 ± 0.1.

In the case of VLHDLRQRFPEIPEGVVSQCMLQNNNNHEACCRALSQES [L28H], the abundance fitness is -0.285 ± 0.097.

For VLHDLRQRFPEIPEGVVSQCMLQNNNNVEACCRALSQES [L28V], the abundance fitness was -0.221 ± 0.043.

VLHDLRQRFPEIPEGVVSQCMLQNNNNDEACCRALSQES [L28D]: the abundance fitness is -0.829 ± 0.31.

Regarding VLHDLRQRFPEIPEGVVSQCMLQNNNNTEACCRALSQES [L28T], the abundance fitness is -0.684 ± 0.2.

Regarding VLHDLRQRFPEIPEGVVSQCMLQNNNNMEACCRALSQES [L28M], the abundance fitness is -0.262 ± 0.076.

As for VLHDLRQRFPEIPEGVVSQCMLQNNNNSEACCRALSQES [L28S], the abundance fitness is -0.629 ± 0.09.

In the case of VLHDLRQRFPEIPEGVVSQCMLQNNNNEEACCRALSQES [L28E], the abundance fitness is -0.471 ± 0.1.

Turning to VLHDLRQRFPEIPEGVVSQCMLQNNNNPEACCRALSQES [L28P], the abundance fitness is -0.313 ± 0.085.

VLHDLRQRFPEIPEGVVSQCMLQNNNNWEACCRALSQES [L28W]: the abundance fitness was found to be 0.007 ± 0.042.

Turning to VLHDLRQRFPEIPEGVVSQCMLQNNNQLEACCRALSQES [N27Q], the abundance fitness is -0.398 ± 0.12.

For VLHDLRQRFPEIPEGVVSQCMLQNNNVLEACCRALSQES [N27V], the abundance fitness is -0.764 ± 0.08.

As to VLHDLRQRFPEIPEGVVSQCMLQNNNRLEACCRALSQES [N27R], the abundance fitness was -0.607 ± 0.054.

Turning to VLHDLRQRFPEIPEGVVSQCMLQNNNKLEACCRALSQES [N27K], the abundance fitness is -0.651 ± 0.11.

Turning to VLHDLRQRFPEIPEGVVSQCMLQNNNSLEACCRALSQES [N27S], the abundance fitness was -0.478 ± 0.09.

VLHDLRQRFPEIPEGVVSQCMLQNNNHLEACCRALSQES [N27H]: the abundance fitness was -0.605 ± 0.26.

Consider VLHDLRQRFPEIPEGVVSQCMLQNNNPLEACCRALSQES [N27P], for which the abundance fitness is -0.856 ± 0.18.

Regarding VLHDLRQRFPEIPEGVVSQCMLQNNNLLEACCRALSQES [N27L], the abundance fitness is -1.12 ± 0.14.

On to VLHDLRQRFPEIPEGVVSQCMLQNNNTLEACCRALSQES [N27T], for which the abundance fitness was -1.01 ± 0.22.

Regarding VLHDLRQRFPEIPEGVVSQCMLQNNNWLEACCRALSQES [N27W], the abundance fitness was -0.835 ± 0.23.

Consider VLHDLRQRFPEIPEGVVSQCMLQNNNNLLACCRALSQES [E29L], for which the abundance fitness was -0.201 ± 0.2.

Turning to VLHDLRQRFPEIPEGVVSQCMLQNNNNLVACCRALSQES [E29V], the abundance fitness was -0.895 ± 0.48.

In the case of VLHDLRQRFPEIPEGVVSQCMLQNNNNLEACCHALSQES [R33H], the abundance fitness was -0.137 ± 0.064.

As to VLHDLRQRFPEIPEGVVSQCMLQNNNNLEACCEALSQES [R33E], the abundance fitness is -0.056 ± 0.058.

For the variant VLHDLRQRFPEIPEGVVSQCMLQNNNNLEACCVALSQES [R33V], the abundance fitness is -0.115 ± 0.051.

As for VLHDLRQRFPEIPEGVVSQCMLQNNNNLEACCQALSQES [R33Q], the abundance fitness is -0.017 ± 0.051.

As to VLHDLRQRFPEIPEGVVSQCMLQNNNNLEACCYALSQES [R33Y], the abundance fitness was -0.459 ± 0.12.

On to VLHDLRQRFPEIPEGVVSQCMLQNNNNLEACCKALSQES [R33K], for which the abundance fitness is -0.023 ± 0.058.

Consider VLHDLRQRFPEIPEGVVSQCMLQNNNNLEACCNALSQES [R33N], for which the abundance fitness was -0.315 ± 0.13.

Turning to VLHDLRQRFPEIPEGVVSQCMLQNNNNLEACCFALSQES [R33F], the abundance fitness was -0.271 ± 0.067.

Consider VLHDLRQRFPEIPEGVVSQCMLQNNNNLEACCSALSQES [R33S], for which the abundance fitness is -0.174 ± 0.045.

Take VLHDLRQRFPEIPEGVVSQCMLQNNNNLEACCWALSQES [R33W]: the abundance fitness was -0.259 ± 0.053.

In the case of VLHDLRQRFPEIPEGVVSQCMLQNNNNLEACCAALSQES [R33A], the abundance fitness turned out to be 0.04 ± 0.045.

VLHDLRQRFPEIPEGVVSQCMLQNNNNLEACCPALSQES [R33P]: the abundance fitness was -0.731 ± 0.089.

In the case of VLHDLRQRFPEIPEGVVSQCMLQNNNNLEACCDALSQES [R33D], the abundance fitness was -0.239 ± 0.1.
